The results in this text go back to article PMC6778226 (Proceedings of the National Academy of Sciences of the …, 2019).

Like-named read-outs stand apart in the source and are kept apart here.

Assay [1] has as its target T1, voltage-dependent anion channel 1 (human, UniProt P21796 1-283, amine reactive RED-NHS NT-647 dye (for MST)). Kind of assay: MST.
Assay [2] has as its target T1, voltage-dependent anion channel 1. Kind of assay: MST. The source holds these as a separate data set.

T1 sequence (P21796 whole entry): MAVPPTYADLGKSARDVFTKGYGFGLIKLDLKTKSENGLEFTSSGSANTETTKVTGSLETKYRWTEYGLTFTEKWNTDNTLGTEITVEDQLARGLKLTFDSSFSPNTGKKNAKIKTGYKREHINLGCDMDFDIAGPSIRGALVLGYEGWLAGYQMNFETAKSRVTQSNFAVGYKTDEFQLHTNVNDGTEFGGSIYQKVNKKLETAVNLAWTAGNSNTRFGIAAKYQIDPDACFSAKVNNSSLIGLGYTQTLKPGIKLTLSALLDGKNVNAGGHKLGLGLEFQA

B1: mitoNEET (natural protein, human)
chain: RFYVKDHRNKAMINLHIQKDNPKIVHAFDMEDLGDKAVYCRCWRSKKFPFCDGAHTKHNEETGDNVGPLIIKKKET
Usually Kd stands for the free concentration of one partner at which half of the binding sites on the other are occupied at equilibrium, for simple one-to-one binding. The low end stands for a tighter complex, the high end for a looser complex. Take B1: the dissociation constant Kd in assay [1] is 210 ± 15 nM; in assay [2] it was 76 ± 2 nM.
